# Experimental data as given in publication PMC6360533 (Neuron, 2018).
# B1: human TMC1 (hsTMC1) fused to GFP (natural protein, UniProt Q8TDI8 1-760, looked up)
# chain: MSPKKVQIKVEEKEDETEESSSEEEEEVEDKLPRRESLRPKRKRTRDVINEDDPEPEPEDEETRKAREKERRRRLKRGAEEEEIDEEELERLKAELDEKRQIIATVKCKPWKMEKKIEVLKEAKKFVSENEGALGKGKGKRWFAFKMMMAKKWAKFLRDFENFKAACVPWENKIKAIESQFGSSVASYFLFLRWMYGVNMVLFILTFSLIMLPEYLWGLPYGSLPRKTVPRAEEASAANFGVLYDFNGLAQYSVLFYGYYDNKRTIGWMNFRLPLSYFLVGIMCIGYSFLVVLKAMTKNIGDDGGGDDNTFNFSWKVFTSWDYLIGNPETADNKFNSITMNFKEAITEEKAAQVEENVHLIRFLRFLANFFVFLTLGGSGYLIFWAVKRSQEFAQQDPDTLGWWEKNEMNMVMSLLGMFCPTLFDLFAELEDYHPLIALKWLLGRIFALLLGNLYVFILALMDEINNKIEEEKLVKANITLWEANMIKAYNASFSENSTGPPFFVHPADVPRGPCWETMVGQEFVRLTVSDVLTTYVTILIGDFLRACFVRFCNYCWCWDLEYGYPSYTEFDISGNVLALIFNQGMIWMGSFFAPSLPGINILRLHTSMYFQCWAVMCCNVPEARVFKASRSNNFYLGMLLLILFLSTMPVLYMIVSLPPSFDCGPFSGKNRMFEVIGETLEHDFPSWMAKILRQLSNPGLVIAVILVMVLAIYYLNATAKGQKAANLDLKKKMKMQALENKMRNKKMAAARAAAAAGRQ
# B2: purified human TMC1 (hsTMC1) reconstituted into amphipols (natural protein, UniProt Q8TDI8 1-760, looked up)
# chain: MSPKKVQIKVEEKEDETEESSSEEEEEVEDKLPRRESLRPKRKRTRDVINEDDPEPEPEDEETRKAREKERRRRLKRGAEEEEIDEEELERLKAELDEKRQIIATVKCKPWKMEKKIEVLKEAKKFVSENEGALGKGKGKRWFAFKMMMAKKWAKFLRDFENFKAACVPWENKIKAIESQFGSSVASYFLFLRWMYGVNMVLFILTFSLIMLPEYLWGLPYGSLPRKTVPRAEEASAANFGVLYDFNGLAQYSVLFYGYYDNKRTIGWMNFRLPLSYFLVGIMCIGYSFLVVLKAMTKNIGDDGGGDDNTFNFSWKVFTSWDYLIGNPETADNKFNSITMNFKEAITEEKAAQVEENVHLIRFLRFLANFFVFLTLGGSGYLIFWAVKRSQEFAQQDPDTLGWWEKNEMNMVMSLLGMFCPTLFDLFAELEDYHPLIALKWLLGRIFALLLGNLYVFILALMDEINNKIEEEKLVKANITLWEANMIKAYNASFSENSTGPPFFVHPADVPRGPCWETMVGQEFVRLTVSDVLTTYVTILIGDFLRACFVRFCNYCWCWDLEYGYPSYTEFDISGNVLALIFNQGMIWMGSFFAPSLPGINILRLHTSMYFQCWAVMCCNVPEARVFKASRSNNFYLGMLLLILFLSTMPVLYMIVSLPPSFDCGPFSGKNRMFEVIGETLEHDFPSWMAKILRQLSNPGLVIAVILVMVLAIYYLNATAKGQKAANLDLKKKMKMQALENKMRNKKMAAARAAAAAGRQ
# B3: purified mouse TMC1 (mmTMC1) reconstituted into amphipols (natural protein, UniProt Q8R4P5 1-757, looked up)
# chain: MLQIQVEEKEEDTEESSSEEEEDKLPRRESLRPKRKRTRDVINEDDPEPEPEDEETRKAREKERRRRLRRGAEEEEEIDEEELERLKALLDENRQMIATVKCKPWKMEKKIEVLKEAKKFVSENEGALGKGKGKKWFAFKMMMAKKWAKFLRDFENFKAACVPWENKIKAIESQFGSSVASYFLFLRWMYGVNMVLFVLTFSLIMLPEYLWGLPYGSLPRKTVPRAEEASAANFGVLYDFNGLAQYSVLFYGYYDNKRTIGWLNFRLPLSYFLVGIMCIGYSFLVVLKAMTKNIGDDGGGDDNTFNFSWKVFCSWDYLIGNPETADNKFNSITMNFKEAIIEERAAQVEENIHLIRFLRFLANFFVFLTLGASGYLIFWAVKRSQEFAQQDPDTLGWWEKNEMNMVMSLLGMFCPTLFDLFAELEDYHPLIALKWLLGRIFALLLGNLYVFILALMDEINNKIEEEKLVKANITLWEANMIKAYNESLSGLSGNTTGAPFFVHPADVPRGPCWETMVGQEFVRLTVSDVLTTYVTILIGDFLRACFVRFCNYCWCWDLEYGYPSYTEFDISGNVLALIFNQGMIWMGSFFAPSLPGINILRLHTSMYFQCWAVMCCNVPEARVFKASRSNNFYLGMLLLILFLSTMPVLYMIVSLPPSFDCGPFSGKNRMFEVIGETLEHDFPSWMAKILRQLSNPGLVIAVILVMVLTIYYLNATAKGQKAANLDLKKKMKQQALENKMRNKKMAAARAAAAAGGQ
# How the values were obtained:
# SEC = molecular target: the molecule itself; test: SEC
# native gel or EMSA = molecular target: the molecule itself; test: native gel or EMSA
# SEC-MALS = molecular target: the molecule itself; test: SEC-MALS
protein,measurement,setting,value
B1,stoichiometry N,SEC,2
B2,stoichiometry N,native gel or EMSA,2
B3,stoichiometry N,SEC-MALS,2
